Assay results published in US11407811B2, “Fusion protein, preparation method therefor and use thereof” (JIANGSU RONGTAI BIOTECH CO., LTD., priority 2017, dated 2022).

Tests used:
[1] = system: melanoma cell line B16F10; assay: MTT assay, proliferation of melanoma cell B16F10; format: cell-based
Procedure: The MTT assay was used to detect the inhibitory effect of the integrin blocker fusion protein obtained in Example 1 on the proliferation of various tumor cells, including melanoma cell B16F10, gastric cancer cell MGC-803, lung cancer cell A549, liver cancer cell Hep-G2, breast cancer cell MDA-MB-231, colon cancer cell HCT-116, human glioma U87, and cervical cancer cell Hela.
The tumor cells were cultured in a 5% CO2 incubator at 37° C. to a density of 90% or more, and collected by trypsinization. The cells were resuspended in the culture liquid and counted under a microscope. The cell concentration was adjusted to 3.0×10^4 cells/mL. The cell suspension was inoculated into a 96-well plate at 100 μL per well and cultured overnight in a 5% CO2 incubator at 37° C. […] After the cells were fully adhered, each dilution was added to a 96-well plate at 100 μL per well, respectively. […] 20 μL of 5 mg/mL MTT was added to each well of a 96-well plate, and incubation was continued for 4 hours. The medium was aspirated and 100 μL of DMSO per well were added to dissolve. The absorbance was measured at 570 nm with a microplate reader with a reference wavelength of 630 nm, and the proliferation inhibition (PI) was calculated. The formula is as follows: […]
where Ntest is the OD value of the test group and Ncontrol is the OD value of the blank control group.
The test was repeated 5 times independently. The results obtained from the test were calculated as mean±SD, and statistical t-test was performed. P<0.05 was considered as a significant difference, and P<0.01 was considered as an extremely significant difference.

[2] = system: IL-1β production by mouse peritoneal macrophages; assay: IL-1β production by mouse peritoneal macrophages (ELISA); format: cell-based
Procedure: (1) IL-1β production: mice were intraperitoneally injected with 1 mL of broth medium containing 6% starch, and three days later, the mouse peritoneal macrophages were aseptically taken, washed twice with a 1640 medium, and the cell concentration was adjusted to 2×10^6 cells/mL, inoculated into a 24-well culture plate at 1 mL/well, incubated for 3 h in a cell incubator, and shaken once every 30 min, so that the cells were allowed to adhere sufficiently. Then, the cells were washed twice with a culture liquid to remove un-adhered cells. […] The supernatant was taken as a sample for testing activity of IL-1β.
(2) Determination of IL-1β content: the detection was performed by using mouse IL-1β enzyme-linked immunosorbent assay kit from R&D company. According to the instructions of the kit, the procedures were as follows: the reaction well for the test samples and different concentrations of standards were sealed with sealing tapes, respectively, incubation was performed at 37° C. for 90 min; the plate was washed four times; a biotinylated antibody working solution (100 μL/well) was added, the reaction well was sealed with sealing tapes, and incubation was performed at 37° C. for 60 min; the plate was washed four times; an enzyme conjugate working solution (100 μL/well) was added, the reaction well was sealed with sealing tapes, incubation was performed at 37° C. for 30 min; the plate was washed four times; a developer (100 μL/well) was added, incubation was performed at 37° C. for 10 to 20 min, a stop solution (100 μL/well) was added and mixed and the OD450 value was measured.

[3] = system: adjuvant arthritis in rat; assay: Chronic inflammation of adjuvant arthritis in rat; format: in vivo; set-up: key to Clinical score Whole body: sum of hind/fore foot, ear, nose, tail scores; full score 8; details: for Clinical score Whole body: full score 8; for Foot swelling degree Left: left hind foot (primary inflammation); for Clinical score Arthritis index: maximum score 16; for Foot swelling degree Right: right foot (secondary inflammation)
Procedure: 80 SPF SD rats were randomly divided into 8 groups. Rats in each group were lightly anesthetized with ether. Then, 0.1 mL of complete Freund's adjuvant containing inactivated Mycobacterium tuberculosis was injected subcutaneously into the left hind foot of the rats. Primary arthritis occurred in the left hind foot of the rat, and at about 13 days post-modeling, secondary arthritis occurred in the right hind foot. A blank control group was injected with an equal volume of physiological saline. The drug was administered 13 days after modeling. A methotrexate group was administered by injection every 5 days for 15 days, 4 times in total; the fusion protein I, protein II, protein III, protein IV, and protein V at high, medium and low doses (128 mg/kg, 32 mg/kg, 8 mg/kg) were administered by injection every 5 days for 15 days.
Using a foot volume measuring method, a marker was made with a fat-soluble marker at the left and right posterior ankle joint of each rat, and the left and right hind feet of the animal were respectively immersed in the volume measuring device. The immersion depth was bounded by the marker, and the reading value at the scale pipette of the device was the initial volume of the animal's left and right hind feet.
The day of modeling was considered as the 0th day and recorded as d0. The volume of the left hind foot (modeling foot) was measured from the first day d1 after modeling every 2 days. When the swelling occurred (i.e., secondary arthritis occurred) at the contralateral non-inflammatory foot (right hind foot), the administration was started. The volume of the left and right hind feet was measured every 2 days, and the degree of primary and secondary toe swelling was determined, which was calculated as follows:
Primary toe swelling (mL)=left hind foot volume on the day of measurement-initial volume of left hind foot
Secondary toe swelling (mL)=right hind foot volume on the day of measurement-initial volume of right hind foot 2. Clinical score
Systemic score: the systemic score was taken every 2 days after the onset of secondary inflammation.
Hind foot: no swelling=0 score, one hind foot swelling=1 score, two hind feet swelling=2 scores;
Forefoot: no swelling=0 score, one forefoot swelling=1 score, two forefeet swelling=2 scores;
Ear: no redness and nodules=0 score, redness or nodules in one ear=1 score, redness and nodules in both ears=2 scores;
Nose: no swelling=0 score, obvious swelling=1 score;
Tail: no nodules=0 score, with nodules=1 score; full score was 8 scores.
Arthritis index score: the arthritis index score was performed every 2 days after the onset of secondary inflammation.
The initial body weight of each group of rats was weighed before modeling. The body weight was measured every 2 days from d1 after modeling, from which the initial body weight was subtracted to obtain the weight gain of each group of rats.

B1: Protein II: IgG2-Fc linked to antiangiogenesis polypeptide EDSM-Y via a flexible linker; SEQ ID NO: 17 (protein)
chain: ERKCCVECPPCPAPPVAGPSVFLFPPKPKDTLMISRTPEVTCVVVDVSHEDPEVQFNWYVDGVEVHNAKTKPREEQFNSTFRVVSVLTVVHQDWLNGKEYKCKVSNKGLPAPIEKTISKTKGQPREPQVYTLPPSREEMTKNQVSLTCLVKGFYPSDISVEWESNGQPENNYKTTPPMLDSDGSFFLYSKLTVDKSRWQQGNVFSCSVMHEALHNHYTQKSLSLSPGKGGGGSGGGGSGGGGSFQPVLHLVALNSPLSGGMRGIRGADFQCFQQARAVGLAGTFRAGGGGRGD
With B1 as the molecule, how does the “A570 nm/A630 nm” value ([1]; dose 1 μg/mL) read?
The value was 1.1137 ± 0.0370.

And the “PI (%)” value ([1]; dose 1 μg/mL)?
Its value is 11.17%.

And the “A570 nm/A630 nm” value ([1]; dose 2 μg/mL)?
Its value is 1.0250 ± 0.0230.

And the “PI (%)” value ([1]; dose 2 μg/mL)?
Its value is 18.24%.

And the “A570 nm/A630 nm” value ([1]; dose 4 μg/mL)?
Its value is 0.8986 ± 0.0731.

And the “PI (%)” value ([1]; dose 4 μg/mL)?
The value was 28.32%.

And the “A570 nm/A630 nm” value ([1]; dose 8 μg/mL)?
The value was 0.7243 ± 0.0421.

What about the “PI (%)” value ([1]; dose 8 μg/mL) of the same molecule?
Its value is 42.23%.

And the “A570 nm/A630 nm” value ([1]; dose 16 μg/mL)?
The value was 0.6400 ± 0.0661.

And the “PI (%)” value ([1]; dose 16 μg/mL)?
The value was 48.95%.

What about the “A570 nm/A630 nm” value ([1]; dose 32 μg/mL) of the same molecule?
The value was 0.5034 ± 0.0286.

What about the “PI (%)” value ([1]; dose 32 μg/mL) of the same molecule?
Its value is 59.85%.

And the “A570 nm/A630 nm” value ([1]; dose 64 μg/mL)?
The value was 0.3867 ± 0.0195.

What about the “PI (%)” value ([1]; dose 64 μg/mL) of the same molecule?
Its value is 69.16%.

And the “PI (%)” value ([1]; dose 128 μg/mL)?
Its value is 76.59%.

What about the “A570 nm/A630 nm” value ([1]; dose 256 μg/mL) of the same molecule?
The value was 0.1777 ± 0.0212.

And the “PI (%)” value ([1]; dose 256 μg/mL)?
The value was 85.83%.

And the “IL-1β” value ([2]; dose 8 μg/mL)?
The value was 746.38 ± 16.59 pg/mL.

What about the “PI (%)” value ([2]; dose 8 μg/mL) of the same molecule?
Its value is 11.85%.

And the “IL-1β” value ([2]; dose 32 μg/mL)?
Its value is 596.02 ± 19.97 pg/mL.

What about the “PI (%)” value ([2]; dose 32 μg/mL) of the same molecule?
Its value is 29.61%.

And the “IL-1β” value ([2]; dose 128 μg/mL)?
Its value is 440.56 ± 11.38 pg/mL.

What about the “PI (%)” value ([2]; dose 128 μg/mL) of the same molecule?
The value was 47.97%.

What about the “inhibition of IL-1β production” value ([2]; in words) of the same molecule?
Its value is “could significantly inhibit IL-1β production”.

And the Weight gain ([3]; 8 mg/kg)?
The Weight gain was 44.96 ± 12.11 g.

And the “Clinical score Whole body” value ([3]; 8 mg/kg)?
The value was 2.23 ± 0.26.

What about the “Foot swelling degree Left” value ([3]; 8 mg/kg) of the same molecule?
Its value is 1.95 ± 0.12 mL.

And the “Clinical score Arthritis index” value ([3]; 8 mg/kg)?
Its value is 6.92 ± 0.55.

And the “Foot swelling degree Right” value ([3]; 8 mg/kg)?
The value was 1.77 ± 0.54 mL.

What about the Weight gain ([3]; 32 mg/kg) of the same molecule?
The Weight gain was 48.10 ± 9.19 g.

And the “Clinical score Whole body” value ([3]; 32 mg/kg)?
The value was 1.81 ± 0.32.

And the “Foot swelling degree Left” value ([3]; 32 mg/kg)?
Its value is 1.60 ± 0.19 mL.

What about the “Clinical score Arthritis index” value ([3]; 32 mg/kg) of the same molecule?
The value was 5.69 ± 0.37.

And the “Foot swelling degree Right” value ([3]; 32 mg/kg)?
The value was 1.54 ± 0.33 mL.

And the Weight gain ([3]; 128 mg/kg)?
The Weight gain was 50.83 ± 15.19 g.

And the “Clinical score Whole body” value ([3]; 128 mg/kg)?
Its value is 1.54 ± 0.19.

And the “Foot swelling degree Left” value ([3]; 128 mg/kg)?
Its value is 1.35 ± 0.14 mL.

What about the “Clinical score Arthritis index” value ([3]; 128 mg/kg) of the same molecule?
Its value is 4.17 ± 0.64.

And the “Foot swelling degree Right” value ([3]; 128 mg/kg)?
The value was 1.35 ± 0.73 mL.

And the “therapeutic effect on primary arthritis (primary toe swelling degree)” value ([3]; high dose groups, compared with the model group)?
Its value is “effective”.
